The test deals with Rabbit skeletal actin, filamentous (pre-formed actin filament) (rabbit) (UniProt P68135). Put plainly: single-filament TIRF microscopy with microfluidics (kymographs); actin filaments tethered at one point through biotinylated spectrin-actin seeds on streptavidin/PLL-PEG-biotin coverslip, stained with 0.15 uM Alexa Fluor 488-phalloidin; AF647-Tpm1.1 flowed in at various concentrations (62.5, 250, 500 nM shown), then washed with buffer only for dissociation; buffer F (5 mM Tris pH 7.8, 100 mM KCl, 1 mM MgCl2, 0.2 mM ATP, 0.2 mM EGTA, 0.1 mM CaCl2, 10 mM DTT, 1 mg/mL BSA).

As for “Murine tropomyosin isoform Tpm1.1, labelled with Alexa Fluor 647 at Cys-190 (natural protein)”, the elongation rate of the Tpm1.1 strand on actin per feed concentration, towards the barbed end (nm s^-1 nM^-1) is 0.88; the elongation rate of the Tpm1.1 strand on actin per feed concentration, towards the pointed end (nm s^-1 nM^-1) came out at 1.1; the nucleation time tnuc (Kaplan-Meier estimate, filament of Fig 3C, 62.5 nM Tpm1.1) was 1370 s; the weighted average elongation rate on one filament, towards the barbed end came out at 136 nm/s. The same substance showed a weighted average elongation rate on one filament, towards the pointed end of 104 nm/s.

(Values after publication PMC6287813.)
